{"source": "paper PMC4810480", "target": "human CD26 (residues 39 to 766) (human) (UniProt P27487)", "sequence (P27487 39-766)": "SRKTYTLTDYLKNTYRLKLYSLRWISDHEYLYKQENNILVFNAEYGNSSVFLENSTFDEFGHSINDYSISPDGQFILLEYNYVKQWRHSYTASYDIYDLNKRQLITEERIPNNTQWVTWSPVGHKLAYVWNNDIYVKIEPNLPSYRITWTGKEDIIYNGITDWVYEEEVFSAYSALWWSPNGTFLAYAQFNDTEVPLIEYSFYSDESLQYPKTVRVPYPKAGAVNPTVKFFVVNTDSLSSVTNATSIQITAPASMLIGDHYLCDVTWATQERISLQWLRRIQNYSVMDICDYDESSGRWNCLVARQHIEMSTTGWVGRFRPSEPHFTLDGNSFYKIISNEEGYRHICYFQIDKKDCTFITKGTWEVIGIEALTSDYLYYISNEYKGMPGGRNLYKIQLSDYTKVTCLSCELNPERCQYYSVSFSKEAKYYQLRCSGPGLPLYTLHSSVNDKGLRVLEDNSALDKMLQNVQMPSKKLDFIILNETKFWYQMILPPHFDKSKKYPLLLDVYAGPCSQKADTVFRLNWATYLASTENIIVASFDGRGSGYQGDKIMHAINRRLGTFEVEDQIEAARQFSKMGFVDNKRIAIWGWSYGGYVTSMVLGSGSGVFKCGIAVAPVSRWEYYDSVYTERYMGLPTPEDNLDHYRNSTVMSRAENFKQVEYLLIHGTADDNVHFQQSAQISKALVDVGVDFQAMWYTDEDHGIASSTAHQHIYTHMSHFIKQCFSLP", "assay": "SPR"}
{"substance": "MERS-CoV spike receptor-binding domain (RBD), wild type (from UniProt K9N5Q8 367-606) (domain or fragment)", "values": [{"measurement": "Kd", "value": 64.5, "unit": "nM"}, {"measurement": "koff", "value": 0.000936, "unit": "s⁻¹"}, {"measurement": "kon", "value": 14500, "unit": "M⁻¹ s⁻¹"}]}
